Reference: patent publication US20190270826A1
“And” between values parts separate entries of the source, which are not always exact repeats. Equal values may be shown once.

What was measured:
human FcRn (human) = human FcRn (human) (UniProt P55899); assay: AlphaScreen competition, human FcRn (n=1); displaced: biotinylated control mAb B21M WT IgG1 (m27); pH 6.0
[1] = target: recombinant human IL1RAP ECD (human) (UniProt Q9NPH3); assay: SPR (ProteOn)
human FcγRI (human) = human FcγRI (human) (UniProt P12314); assay: AlphaScreen competition, human FcγRI (n=1); displaced: biotinylated control mAb B21M hIgG1 AlaAla; pH 7.2
human FcγRI (human), sequence (P12314 16-292 limits assumed): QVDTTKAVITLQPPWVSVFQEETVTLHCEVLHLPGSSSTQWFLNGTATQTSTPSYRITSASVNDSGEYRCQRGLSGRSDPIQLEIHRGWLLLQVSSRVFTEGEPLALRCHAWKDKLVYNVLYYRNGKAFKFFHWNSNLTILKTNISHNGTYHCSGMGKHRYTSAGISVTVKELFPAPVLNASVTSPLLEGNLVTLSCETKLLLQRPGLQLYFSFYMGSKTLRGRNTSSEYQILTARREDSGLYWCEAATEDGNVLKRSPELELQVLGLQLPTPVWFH

recombinant human IL1RAP ECD (human), sequence (Q9NPH3 other isoform, or with tags, fused parts or gaps): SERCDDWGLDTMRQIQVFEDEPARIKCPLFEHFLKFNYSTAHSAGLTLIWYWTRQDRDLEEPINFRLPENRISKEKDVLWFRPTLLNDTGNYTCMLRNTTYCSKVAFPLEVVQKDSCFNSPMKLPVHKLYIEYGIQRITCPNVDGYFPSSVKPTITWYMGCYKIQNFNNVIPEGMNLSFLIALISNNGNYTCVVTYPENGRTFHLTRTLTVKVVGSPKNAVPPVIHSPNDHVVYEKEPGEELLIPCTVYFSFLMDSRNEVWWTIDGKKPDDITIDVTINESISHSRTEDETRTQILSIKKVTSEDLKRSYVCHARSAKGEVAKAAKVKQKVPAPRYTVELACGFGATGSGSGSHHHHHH
human FcRn (human), sequence (P55899 24-297 limits assumed, form in doubt, chain 1 of 2): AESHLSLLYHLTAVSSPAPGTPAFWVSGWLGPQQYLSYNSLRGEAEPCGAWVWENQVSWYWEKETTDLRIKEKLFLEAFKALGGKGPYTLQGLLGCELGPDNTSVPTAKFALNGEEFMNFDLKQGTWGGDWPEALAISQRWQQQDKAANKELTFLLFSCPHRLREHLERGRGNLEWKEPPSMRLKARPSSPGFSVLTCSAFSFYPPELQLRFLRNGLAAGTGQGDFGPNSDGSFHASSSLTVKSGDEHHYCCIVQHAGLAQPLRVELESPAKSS
human FcRn (human), sequence (chain, as listed by the source limits assumed, form in doubt, chain 2 of 2): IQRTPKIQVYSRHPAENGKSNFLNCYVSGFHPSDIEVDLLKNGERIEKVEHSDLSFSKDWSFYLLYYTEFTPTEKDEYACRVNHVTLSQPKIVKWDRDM

| Substance | IC50 (read off the curve) (human FcRn (human)) [nM] | Kd [1] | koff [1] | kon [1] | IC50 (read off the curve) (human FcγRI (human)) [nM] |
| --- | --- | --- | --- | --- | --- |
| Human IgG4-PAA isotype control (antibody) | 200 |  |  |  |  |
| anti-human/cyno IL1RAP, mouse IgG1, R&D #MAB676 (antibody) |  | 1.42 nM and 1.21 nM | 0.000369 s⁻¹ and 0.000336 s⁻¹ | 260000 M⁻¹ s⁻¹ and 277000 M⁻¹ s⁻¹ |  |
| wild type hIgG1 (antibody) | 90 |  |  |  | 3 |
